Data on one molecule can be found in patent US20210270842A1.

The target in this test is plasma kallikrein (human) (UniProt P03952). Nature of the test: cell-based or functional assay.
plasma kallikrein (human), sequence (P03952 20-638 limits assumed): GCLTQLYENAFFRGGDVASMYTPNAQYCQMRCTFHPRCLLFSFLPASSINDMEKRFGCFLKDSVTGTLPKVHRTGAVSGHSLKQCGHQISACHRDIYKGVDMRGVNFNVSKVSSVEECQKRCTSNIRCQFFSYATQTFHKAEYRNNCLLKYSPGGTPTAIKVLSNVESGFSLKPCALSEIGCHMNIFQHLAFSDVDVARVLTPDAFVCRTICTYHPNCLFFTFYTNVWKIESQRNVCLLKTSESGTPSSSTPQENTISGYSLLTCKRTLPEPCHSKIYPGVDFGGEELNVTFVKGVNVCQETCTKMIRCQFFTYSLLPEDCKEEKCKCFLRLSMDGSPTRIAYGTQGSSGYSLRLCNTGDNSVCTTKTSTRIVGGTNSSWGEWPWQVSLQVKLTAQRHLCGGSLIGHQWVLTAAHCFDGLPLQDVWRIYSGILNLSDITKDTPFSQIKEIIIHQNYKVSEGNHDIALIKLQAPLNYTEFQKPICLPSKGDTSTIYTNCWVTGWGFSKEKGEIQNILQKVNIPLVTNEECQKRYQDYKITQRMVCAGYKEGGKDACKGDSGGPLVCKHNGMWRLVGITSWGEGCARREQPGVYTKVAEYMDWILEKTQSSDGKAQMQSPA

B1: lanadelumab (antibody, V domains shown)
VH: EVQLLESGGGLVQPGGSLRLSCAASGFTFSHYIMMWVRQAPGKGLEWVSGIYSSGGITVYADSVKGRFTISRDNSKNTLYLQMNSLRAEDTAVYYCAYRRIGVPRRDEFDIWGQGTMVTVSS
VL: DIQMTQSPSTLSASVGDRVTITCRASQSISSWLAWYQQKPGKAPKLLIYKASTLESGVPSRFSGSGSGTEFTLTISSLQPDDFATYYCQQYNTYWTFGQGTKVEI
B1 showed an IC50 for lanadelumab inhibition of 2-chain HMWK generation (FXIIa-activated citrated plasma, Western blot and sandwich ELISA) of 212 nM.
